Test results taken from patent US20200347130A1 (JIANGSU HENGRUI MEDICINE, published 2020).

Assays:
Assay in all cases: peptide ELISA, peptide coated
[1] = biological target: T1, CD96 epitope peptide #2 (32-51) (human)
T1 peptide: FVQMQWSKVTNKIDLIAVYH
Method: (§1) The epitopes recognized by anti-CD96 antibody were detected by the assay of binding the antibody to different polypeptide fragments of CD96 protein. The fragments of different polypeptides of the CD96 antigen were coated on the microtiter plate. The signal density after the antibody was added was used to judge the binding activity of the antibody and the polypeptide. The specific experimental method is as follows:
(§2) The polypeptides were diluted to a concentration of 20 μg/ml with PBS buffer (Shanghai Yuanpei Biotechnology Co., Ltd. Cat No. B320), pH 7.4, added to a 96-well microtiter plate (Corning, Cat No. CLS3590-100EA) at a volume of 50 μl/well, and coated at 4° C. overnight. After discarding the liquid, 250 μl/well of 5% skim milk (BD skim milk, Cat No. 232100) blocking solution diluted with PBS was added, and the plate was incubated in an incubator at 37° C. for 3 hours. After blocking, the blocking solution was discarded, and the plate was washed 5 times with PBST buffer (pH 7.4 PBS containing 0.05% tween-20). 50 μl/well of different concentrations of the antibodies to be tested (hybridoma purification antibody or humanized antibody) diluted with sample dilution was added, and the plate was incubated in an incubator at 37° C. for 2 hours. […] After washing the plate 5 times with PBST, 50 μl/well of TMB chromogenic substrate (KPL, Cat No. 52-00-03) was added, the plate was incubated at room temperature for 5-15 min, followed by adding 50 μl/well of 1M H₂SO₄ to stop the reaction. The absorption value was read at 450 nm with a microplate reader (Thermo Scientific MuLtiskan MK3), and the epitopes that CD96 antibody can recognize were analyzed.

[2] = biological target: T2, CD96 epitope peptide #8 (122-141) (human)
T2 peptide: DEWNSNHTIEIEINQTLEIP
Method: as §1, §2

[3] = biological target: T3, CD96 epitope peptide #15 (220-239) (human)
T3 peptide: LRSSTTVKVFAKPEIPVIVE
Method: as §1, §2

[4] = biological target: T4, CD96 epitope peptide #16 (235-254) (human)
T4 peptide: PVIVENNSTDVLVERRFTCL
Method: as §1, §2

[5] = biological target: T5, CD96 epitope peptide #19 (280-299) (human)
T5 peptide: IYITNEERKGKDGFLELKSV
Method: as §1, §2

[6] = biological target: T6, CD96 epitope peptide #20 (295-314) (human)
T6 peptide: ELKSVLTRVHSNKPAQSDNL
Method: as §1, §2

[7] = biological target: T7, CD96 epitope peptide #22 (325-344) (human)
T7 peptide: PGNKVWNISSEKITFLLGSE
Method: as §1, §2

binding result [1]: binds | binding result [2]: binds | binding result [3]: binds | binding result [4]: binds | binding result [5]: binds | binding result [6]: binds | binding result [7]: binds
B1: ch1718 (antibody, human IgG4 S228P, kappa, V domains shown)
VH: EFQLQQSGPELVKPGASVKISCKASAYSITDYNMNWVKQSNGKSLEWIGVINPSYGITDYNQNFKDKATLTVDQSSSTAYMQLNSLTSEDSAVYYCAIQLRLPGYFDVWGTGTTVIVSS
VL: DIKMTQSPSSMYASLGERVTITCKASQDINNYLNWFQQKPGKSPKTLIYRANRLVDGVPSRFSGSGSGQDYSLTISSLEYEDMGIYYCLKYDEFPYTFGGGTKVEIKR
notes: also called chimeric antibody corresponding to m1718
